Legend:
[1] = tested on: Arabidopsis thaliana (columbia ecotype) plant body; assay: full-length cDNA microarray analysis of gene expression levels after environmental stress application; conditions: in vivo
Procedure, shortened: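 Three-week-old Arabidopsis grown at 22° C. on a 16 h light/8 h dark cycle were stressed by 4° C. cold, 2 h open-plate dehydration, or root application of MS medium containing 250 mM NaCl or 100 μM ABA. Total RNA/mRNA from stressed and unstressed plants was reverse transcribed with Cy3/Cy5 dUTP and hybridized to full-length cDNA microarrays.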

[2] = tested on: transgenic Arabidopsis thaliana plant body (luciferase reporter gene); assay: luciferase assay of promoter::LUC transgenic plants after environmental stress application; assay type: in vivo; conditions: for activity to induce gene expression compared with other promoters: in vivo; for Tissue allowing specific induction: summary over stress types
Procedure, shortened: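 Arabidopsis lines carrying promoter::luciferase, 10 days after sowing on MS agar, sprayed with 1 mM luciferin (0.01% Triton-X), 5 min dark, imaged by ARGUS before stress. Stresses: 4° C, 2 h air dehydration, 250 mM NaCl or 100 μM ABA to roots; luminescence at 2, 5, 10 h.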

| Molecule | Environmental stress type to which the promoter responds [1] | Tissue in which specific induction of expression is realized ([2]; Salt stress (250 mM NaCl)) | Tissue in which specific induction of expression is realized ([2]; Salt stress (250 mM NaCl), listed as promoter of RAFL09-07-M01) | activity to induce gene expression compared with other promoters [2] | Tissue allowing specific induction [2] | Tissue in which specific induction of expression is realized ([2]; ABA stress (100 μM ABA)) | Tissue in which specific induction of expression is realized ([2]; ABA stress (100 μM ABA), listed as promoter of RAFL08-17-O07) |
| --- | --- | --- | --- | --- | --- | --- | --- |
| Promoter of RAFL09-07-M01: environmental stress responsive promoter DNA, SEQ ID NO: 7, upstream of At4g20830 (protein containing FAD-binding domain) (nucleic acid, listed as Arabidopsis thaliana) DNA: AGGTGCAGGAGATTGAATCGAAGCTTCGTTTATAAAACAATGTACATAGTTGTTTAAAGTCTTAAAGTTGGACTTTTCTTTTGCTCAGCCCCACAAACCCAATTGGATTATAATACCGACGCCGACCAATCAATGCTACGACCATTGACTTATAAAACATACATCGGACACACACAAAAAAAAACTACACTTTTTGTATCAGCAATCTTTTTAGTTATTTGTTTTCAGTTATATAAATCAATGTTTGTGTTTTCTAATAACAGTTATTAGTATGCTAGTGATGCATGGTTAAAAAAAAAAAAAGAAATTTCAAATATATATTTTAATTTGCATTATGTAAAATATTTTAAAAATAAGTCCCTAGTACCAATGGAGTGTTTTTGTTTAAGCTACAAGTGAATTATAATACGTAGTAATCTTGATTCAAATGGAAAGATTTACCATGTGGGTCTATACCAAAACCGTGTCCTTTTTCATATGTATGAATCTCTAATAGTTGCTTCTTTTGACTAGAATAATTTGTAAAGTAACTCCTAATTCATAAATATTGAAGATTAGTCTGATTTATTATTAATATGCAAATCTCTGATTAATAAGAAATAAATTATAATAGAAATATTGATGTGTACTGATCATCTTTTAATAAATGTTTGAGACTACAAATACTATAATGAATCAAATGAACATAAATGTATAGATGAACTGAATAAAATTCCAGATACACCTTGAATTAAATATGTATTCATAGTATTTTTTTTTAAAATGAAATCTGGATTTTAAATCCTTATTATTCAAAAAAATCTTCTCCTTTGATATTTTTGCTATAACAAATTAAAATAAAATCTGTAATCACTAATCATATCCCTTAACTCCCTTTAATATCTTTTGTTGACCAAAACAAATATTTTTTTGTTATATGCAACGAATAAAAAAACATTGAAAGTACTTTCCAAAAACAAAACACGTCTTCTTCTCCCTGCGGTTATAAATAGACACGGATAAGTACAAAGAACAGAGGAACACGAGACCCAAGAAAAAGATCTCAAA | Dehydration and salt | Stem and leaf tissue and root tissue | stem and leaf tissue and root tissue | lower than that of other promoters | Stem and leaf tissue and root tissue |  |  |
| Promoter of RAFL08-17-O07: environmental stress responsive promoter DNA, SEQ ID NO: 8, upstream of At2g29450 (glutathione S-transferase) (nucleic acid, listed as Arabidopsis thaliana) DNA: CGGTGGCAAAACAATTGGATTTTTGGACTTGGTCGCAGGAAGTATGATCCCGTTTTGTCTTGCTCGAGGTTGGGAAGGTATGGGAATTGATATGATTCCAGAGGAAAAGTTTCCAGAGCTAAACAGATGGATCAAAAATTTGAAAGAAATTGAGATCGTGAGAGAATGTATTCCTCCTAGAGAGGAACAAATTGAGCATATGAAGAAAGTTGTAGAAAGAATCAAATCAGCCTAAGAGACAACAATGATACTCTTCGATCAGTAGATGTTAACTATATGTTTGTGTAATCTTGTTATAATAGTTTGTATGAACAATAAATGAAACATTTGTATGAACAATTAGTGTTTTTACTAAATTCTAATGTCAATTAATTATTATAAACATTTTAAATGTAGTAGTATTCAATTTCTTACAAATCATAAGAAATTGGTTCATAAACCTGGAGTTTTCATATGAAAGAAAAGTAGATAAAAGCTATAATTTAGTCAAACCATCCTTCTTAATAAAACCACAACTATGATTAAATGTGAACATGTATTTCGACACGTAAGAAGTTGTGTAAACAGAGGAAAGTACAACGGACATGTGGGTCTATTTGTTGCGGCACAATATAACAAATTTCTTTAGTATATTTTTAGTATCGTGAGGTGGTGAGTCTTGTAACCATAGAAAATTCACCGATACTTTATAACATTGTTGGAAGGAAAATTCAGCAAACAAGTTCGTAGATGGAGAAACGGAAAAACCAACGCCTATTATAACAACAACATTTTTAATATATGCCAAAAGGAACATCAAATAACAGATTAGTACTAATTCTTTTTTTATAGCTCAGACTATAGAGTTGTTTGTTTTCTTGGGCGTCAATATAACAAACGAGAATGACAAATGGTTTTAAAGCTGTTGATGTTTCATACACAGACAAAATGGATCAATTATGAAGAACCACGATAAAGTGATGGGTATAATTGGGGAAGCAGAAGAAATTCTTGACGAAGCATGGGGTTGTCTTCAGAAAATGAATGGATCAAGTCAAGGTACACATGCTCCAGGGATAAGGCAAGGTTAGGAATTAGGACACATCTCCACTTACTAAAAAAGAGATAAAAAAAAATTATAAAGGGAACGTTATAAATATGTTGTAAAGTCAACATCTGTTTCCTTCTAGACTCTTCGCATTTACATCACACTGCCGACCATATAAAACGGCAAAGTTCGTCGTCGTTTTATCACAAGACCATCAACACCATAAGGCTATAAATCCAAGCTAAAAGGTAGTGATTAACTCCACAAAACCAGAAAAAACTACATTTCTAACATATAGAAGAAACAGAGAAAAAGAGAGAGAGACCCCTA | Dehydration and salt |  |  | lower than that of other promoters | Root tissue | Root tissue | root tissue |
